Test results as given in patent US20250296994A1 (SYSMEX, published 2025).

Molecular target: T1, recombinant Crtac1B fragment #5 (human, UniProt Q9NQ79 28-606)
T1 construct: also called fCrtac1B (1-608)
T1 sequence: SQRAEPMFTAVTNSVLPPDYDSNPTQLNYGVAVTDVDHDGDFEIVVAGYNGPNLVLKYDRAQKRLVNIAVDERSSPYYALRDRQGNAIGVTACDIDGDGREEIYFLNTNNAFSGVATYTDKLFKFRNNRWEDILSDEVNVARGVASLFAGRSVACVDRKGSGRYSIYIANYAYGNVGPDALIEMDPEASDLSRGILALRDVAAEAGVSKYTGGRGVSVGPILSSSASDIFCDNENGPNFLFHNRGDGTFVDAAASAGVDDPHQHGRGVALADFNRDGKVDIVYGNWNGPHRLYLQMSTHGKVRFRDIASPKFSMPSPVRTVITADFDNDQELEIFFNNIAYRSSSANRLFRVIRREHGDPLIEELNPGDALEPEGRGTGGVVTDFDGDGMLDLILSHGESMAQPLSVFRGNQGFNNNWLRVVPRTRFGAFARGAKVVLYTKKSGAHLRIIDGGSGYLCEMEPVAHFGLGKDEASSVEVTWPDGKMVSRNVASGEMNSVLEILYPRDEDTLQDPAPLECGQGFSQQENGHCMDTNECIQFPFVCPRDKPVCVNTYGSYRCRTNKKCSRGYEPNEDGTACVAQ
Test: antigen immobilized ELISA; reference fCrtac1B (1-609)
Experimental: The positive antigen and the negative control were diluted to a concentration of 20 μg/mL with dilution buffer I (20 mM potassium phosphate buffer (pH 7.4), 150 mM NaCl). A positive antigen (50 μL) and a negative control (50 μL) were added to each well of a 96 well plate, respectively. Then, the plate was incubated at 4° C. overnight, and the positive antigen and the negative control were immobilized in the well to obtain an antigen immobilized plate. Each well was washed twice with a washing solution (250 μL, 0.05% Tween (registered trademark) 20/20 mM potassium phosphate buffer (pH 7.4), 150 mM NaCl). To each well was added a blocking buffer (250 μL, 5% skim milk/20 mM potassium phosphate buffer (pH 7.4), 150 mM NaCl), and blocked at room temperature for 90 minutes. Culture supernatant (50 μL) of each hybridoma selected by primary screening was added to each well, and the cells were incubated at 37° C. for 1 hour. Each well was washed three times with a washing solution (250 μL). The HRP-labeled anti-mouse IgG antibody (MBL, product number 330) was diluted 1:1,000 with dilution buffer II (1% skim milk/20 mM potassium phosphate buffer (pH 7.4), 150 mM NaCl). […] The plate was set in a microplate reader (Thermo Fisher Scientific, Varioskan (registered trademark) Flash), and the color development intensity at 655 nm was measured for each well. […]

B1: 15C2 antibody (monoclonal antibody derived from the hybridoma of clone 15C2) (antibody, mouse IgG1, kappa, V domains shown)
VH: EVQLQQFGAELVKPGASVKISCKASGYTFTDYNMDWVKQSHGKSLEWIGDINPNYDSSSYNQKFKGKATLTVDKSSSTAYMELRSLTSEDTAVYYCTRSGGTYWGQGTLVTVSA
VL: DIQMNQSPSSLSASLGDTITITCHASQNINVWLSWYQQKPGNIPKLLIYKASNLHTGVPSRFSGSGSGTGFSLTISSLQPEDIATYYCQQAQSYPRTFGGGTKLEIKR
notes: Mouse IgG1; Used as hybridoma culture supernatant (ELISA) or purified from supernatant (IB, IP); also called anti-Crtac1B antibody; antibody of the present embodiment
  binding relative to the binding to fCrtac1B (1-609): ~0.1 fold
